Measurements from US20060134099A1.

Target: dog street rabies virus DRV-4
Assay: cell-based or functional assay

B1: plant-derived human rabies monoclonal antibody MAb^P (rabies human MAb S057 expressed in transgenic (antibody, V domains shown)
VH: QVQLVQSGAEVKKPGSSVKVSCKASGGTFNRYTVNWVRQAPGQGLEWMGGIIPIFGTANYAQRFQGRLTITADESTSTAYMELSSLRSDDTAVYFCARENLDNSGTYYYFSGWFDPWGQGTLVTVSS
VL: QSALTQPRSVSGSPGQSVTISCTGTSSDIGGYNFVSWYQQHPGKAPKLMIYDATKRPSGVPDRFSGSKSGNTASLTISGLQAEDEADYYCCSYAGDYTPGVVFGGGTKLTVLG
Virus neutralizing antibody (VNA) titer, RFFIT: 81 IU/ml
